From patent US20050262592

Tested on: duckweed-produced human microplasminogen
Sequence (chain, as listed by the source): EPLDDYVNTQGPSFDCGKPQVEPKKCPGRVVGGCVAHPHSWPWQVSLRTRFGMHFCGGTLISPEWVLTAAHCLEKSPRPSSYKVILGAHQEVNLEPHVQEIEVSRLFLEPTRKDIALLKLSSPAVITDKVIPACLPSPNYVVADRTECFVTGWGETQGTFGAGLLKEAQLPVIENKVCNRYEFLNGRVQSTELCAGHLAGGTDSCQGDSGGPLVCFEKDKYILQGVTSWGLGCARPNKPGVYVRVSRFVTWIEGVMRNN

urokinase
Western blot: production of the B chain of plasmin: Western blot analysis confirmed the production of the B chain of plasmin following activation of duckweed-produced microplasminogen with either urokinase or tPA
